Measured values reported in the supplement of paper PMC9170038.

System: MS2 coat protein
Assay: apparent KD of MS2 coat protein; designed switch direction (-1 OFF switch, 1 ON switch): -1; higher = weaker reporter binding
Procedure, shortened: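 Normalised cluster fluorescence was curve-fitted, and each design's median over clusters is its apparent KD. Before this, SNAP-549-labelled MS2 coat protein was titrated from 0.7 or 1.5 nM, doubling to 3 µM, over RNA switches transcribed on Illumina chips by stalled E. coli RNA polymerase. Titrations had no input, 200 uM small-molecule ligand, or an oligonucleotide input, and steps lasted 0.8–1.5 h (lowest) to 10–20 min (highest).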

[1] = Eterna round: R95, input ligand: FMN 200 uM
[2] = Eterna round: R95, input ligand: microRNA oligo, concentration not stated
[3] = Eterna round: R95, input ligand: none
[4] = input ligand: microRNA oligo, concentration not stated

Row | Sequence | apparent KD of MS2 coat protein (input ligand: FMN 200 uM) | apparent KD of MS2 coat protein (input ligand: none) | apparent KD of MS2 coat protein [1] | apparent KD of MS2 coat protein [2] | apparent KD of MS2 coat protein [3] | apparent KD of MS2 coat protein [4]
1 | GGUAAGCUAGGAUAUGCUUUGGGAAAGCAUUCCUUCGAUAAACUUGAGGAUCACCCAAGUAGAAGGAGCUUACC [salish99_ex2_r4_016] (Eterna round: R97, puzzle: Exclusion 2) | 19.8 nM | 11.8 nM | – | – | – | –
2 | GGUAAGCUAGGAUAUGCUUUGGGAAAGCAUUCCUUCGAUAAACUUGAGGAUCACCCAAGUAGAAGGAGCUUACG [salish99_ex2_r4_015] (Eterna round: R97, puzzle: Exclusion 2) | 16.7 nM | 12.8 nM | – | – | – | –
3 | GGUACUAACACGAAAGUGUUAGUACAAUAAGCUUGUGAAACAUGAGGAUCACCCAUGUCCUCAUAAGCUCGUCUUAA [salish99_TOv2_r3_004] (puzzle: Sensor v3, turn-off variant 2) | – | – | 14.4 nM | 238 nM | 13.3 nM | –
4 | GGUACUAACACGAAAGUGUUAGUACAAUAAGCUUGUGUUACAUGAGGAUCACCCAUGUCCUCAUAAGCUCGUCUUAU [Mat - Sensor v3 - Turn-off var 2 - D52] (puzzle: Sensor v3, turn-off variant 2) | – | – | 112 nM | 38.8 nM | 126 nM | –
5 | GGUAGAGUGGUAGGAUAUCCGACUGUUUCAGACGGAGAAGGACCACAGUCACUGGGUCCAAAUAUCAUGGAGACCUGAUCUACC [pwkr exNG1 F6.8] (Eterna round: R96, puzzle: Exclusion NG 1) | 983 nM | 634 nM | – | – | – | 556 nM
6 | GGUAUACAUGAGGAUCACCCAUGUCAGGAUAUGGAAACCUGUGCCGAAAGGCACAGGGCCAGAAGGGACGAUAG [AK-MS2ROC-r4-exclusion1-5.3] (Eterna round: R97, puzzle: Exclusion 1) | 93.7 nM | 82.9 nM | – | – | – | –
7 | GGUCAGACGGUAGGAUAUCCAUAUCGAGUGACCUUUUCAUAACAUGAGGAUCACCCAUGUCGGUGGGAGAAGGGCCGUACGGCG [salish99_ExNG02_R04_004] (Eterna round: R96, puzzle: Exclusion NG 2) | 114 nM | 93.2 nM | – | – | – | 78.2 nM
8 | GGUCAGACGGUAGGAUAUCCAUAUUGAGUGACCCUUUCAUAACAUGAGGAUCACCCAUGUCGGUGGGAGAAGGGCCGUACGGCG [salish99_ExNG02_R04_006] (Eterna round: R96, puzzle: Exclusion NG 2) | 205 nM | 411 nM | – | – | – | 214 nM
9 | GGUCCACAUGAGGAUCACCCAUGUGAGGAUAUGCAGCGGGAGCCGCCGCCGAACCGAUGUAGAAGGCACACCUG [Eternabot (Original) Solution 19] (Eterna round: R97, puzzle: Exclusion 1) | 19 nM | 20.4 nM | – | – | – | –
10 | GGUCCACAUGAGGAUCACCCAUGUUAGGAUAUCUCGCCCGAGUCGUUAUGGGCCAGGCAGAGAAGGAAUGUGAA [Cebeisve] (puzzle: Exclusion 1) | – | – | – | 18 nM | – | –
11 | GGUCCCAGGCAGGAUAUGCAAGCCACACAUGGCGCAGAAGGGCUCACAUGAGGAUCACCCAUGUAUUUCGUUUU [Eternabot (L1) Solution 19] (Eterna round: R97, puzzle: Exclusion 6) | 86 nM | 42.3 nM | – | – | – | –
12 | GGUCGACAUGAGGAUCACCCAUGUCAGGAUAUCGUCACUGGAGCCUCGGCUCCAGUGACGAGAAGGGACAUAAU [E1/14-A2] (Eterna round: R97, puzzle: Exclusion 1) | 23.4 nM | 31.4 nM | – | – | – | –
13 | GGUCGCUUUGUCAGGAUAUCAGGUUAGAUCUGAUUUGAGAAGGGACAUGAGGAUCACCCAUGUGGCGACCUAAA [Eternabot (L1) Solution 42] (Eterna round: R97, puzzle: Brourd's mod of Exclusion 4) | 26.4 nM | 31.7 nM | – | – | – | –
